According to patent US20150010546A1 (Ablynx, published 2015):

Columns and labels:
[1] = molecular target: T1, human HGF (R&D material and Peprotech material, values averaged over both) (human, UniProt P14210 32-728); assay: SPR (Biacore T100), purified Nanobody, average of R&D and Peprotech HGF
T1 construct: As printed they differ in one letter
Protocol: Affinity constants (Kd) of individual purified Nanobody clones were determined by surface plasmon resonance on a Biacore T100 instrument essentially as described above. The average was taken of an analysis performed on R&D material and Peprotech material.

[2] = molecular target: T2, human HGF (R&D Systems, 294-HG/CF) (human, UniProt P14210 32-728); assay: SPR (Biacore T100), HGF amine-coupled to CM5 chip, periplasmic extract at one dilution
T2 construct: The entry begins at QRKRR, without signal peptide; Amine-coupled to the chip in SPR and biotinylated in AlphaScreen; also called rec hHGF (R&D systems)
Protocol: Off-rate constants (Koff) of individual Nanobodies were determined by surface plasmon resonance on a Biacore T100 instrument.
Human HGF (R&D) was amine-coupled to a CM5 sensor chip at a density of 2500 relative units. Remaining reactive groups were inactivated using ethanolamine. Nanobody binding was assessed at a single dilution of periplasmic extract, whereas c-Met was tested with a single concentration of 10 nM. Each sample was injected for 2 min at a flow rate of 45 μl/min to allow for binding to chip-bound antigen. Next, binding buffer without Nanobody was sent over the chip at the same flow rate to allow dissociation of bound Nanobody. After 10 min, remaining bound analyte was removed by injecting regeneration solution (1M NaCl, 50 mM NaOH).

[3] = molecular target: T2, human HGF (R&D Systems, 294-HG/CF); assay: AlphaScreen competition, serial dilution of purified Nanobody; inhibition of biotinylated human HGF binding to c-Met-Fc
Protocol: (§1) In brief, 5 μl of 1/5 prediluted periplasmic extract of individual Nanobody clones were incubated with 3 nM biotinylated HGF, 2 nM c-Met-Fc, streptavidin coated donor beads and anti-human IgG1 Fc Nanobody covalently coupled AlphaScreen acceptor beads. Monoclonal antibody clone 24612 (R&D systems) known to inhibit the HGF/c-Met-Fc interaction, was used as a positive control. Assays were read in an Envision AlphaScreen™ option fitted multimode reader (Perkin Elmer). Individual clones were scored as putative HGF/c-Met-Fc interaction inhibiting if the presence of the periplasmic extract decreased the fluorescent signal of the acceptor beads. Both inhibitory and non-inhibitory clones were identified. A 10-fold reduction in signal with respect to the negative control (irrelevant periplasmic extract and buffer) was used to select the HGF/c-Met inhibiting Nanobodies. As a positive control, anti-HGF monoclonal antibody (R&D systems, clone 24612) was included. FIG. 2 depicts an example of screen of periplasmic extracts using AlphaScreen.
(§2) Serial dilutions of purified Nanobodies were then analyzed for their ability to block the interaction of human HGF with c-Met-Fc using the same AlphaScreen™ assay as described above (1.4). […]

[4] = molecular target: T1, human HGF (R&D material and Peprotech …); assay: SPR (Biacore T100), purified Nanobody, biphasic dissociation, kd1 fitted 125-185 s after injection start
[5] = molecular target: T1, human HGF (R&D material and Peprotech …); assay: SPR (Biacore T100), purified Nanobody, biphasic dissociation, kd2 fitted 300-720 s after injection start
[6] = molecular target: T2, human HGF (R&D Systems, 294-HG/CF); assay: AlphaScreen competition, biotinylated HGF and c-Met-Fc, dilution series of purified Nanobody
Protocol: as §1, §2

[7] = molecular target: T1, human HGF (R&D material and Peprotech …); assay: SPR (Biacore T100), summary table

T1 sequence (P14210 32-728 limits assumed): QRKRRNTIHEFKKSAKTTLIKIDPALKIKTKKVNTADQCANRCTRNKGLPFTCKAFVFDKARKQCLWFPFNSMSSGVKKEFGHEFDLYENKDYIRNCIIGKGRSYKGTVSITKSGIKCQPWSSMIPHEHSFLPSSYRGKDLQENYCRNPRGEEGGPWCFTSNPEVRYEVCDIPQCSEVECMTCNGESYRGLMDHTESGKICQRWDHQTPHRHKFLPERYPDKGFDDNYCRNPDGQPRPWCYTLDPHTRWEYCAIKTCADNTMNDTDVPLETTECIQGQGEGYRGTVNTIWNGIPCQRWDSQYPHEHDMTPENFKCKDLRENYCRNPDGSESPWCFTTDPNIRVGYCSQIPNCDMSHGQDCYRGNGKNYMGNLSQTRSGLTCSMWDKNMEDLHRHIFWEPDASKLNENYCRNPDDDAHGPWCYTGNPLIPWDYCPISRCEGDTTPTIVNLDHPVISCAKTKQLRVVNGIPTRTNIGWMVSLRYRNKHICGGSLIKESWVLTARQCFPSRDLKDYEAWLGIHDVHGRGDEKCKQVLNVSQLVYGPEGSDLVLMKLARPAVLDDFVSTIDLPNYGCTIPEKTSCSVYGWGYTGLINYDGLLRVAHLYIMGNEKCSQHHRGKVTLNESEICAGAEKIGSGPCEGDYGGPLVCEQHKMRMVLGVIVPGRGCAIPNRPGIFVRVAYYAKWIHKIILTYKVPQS
T2 sequence (P14210 32-728 limits assumed): as above

Row | Binder | koff [2] [s⁻¹] | IC50 [6] [nM] | koff [7] [s⁻¹] | also measured
1 | 7G6 (VHH, anti-HGF Nanobody clone; not shown: c-myc and His6 tags) VHH: EVQLVESGGGLVQAGGSLRLSCAVSGRTFSPYTMGWFRRAPGKEREFVAARTWSGGVAWYADSVKGRFTISSDNAENMVYLQMNSLKPEDTAVYYCAAKSPGRTYSPREERAYARWGQGTQVTVSS | 0.000936 |  |  | Kd [1]: 0.67 nM; koff [1]: 0.000691 s⁻¹; kon [1]: 1.06e+06 M⁻¹ s⁻¹; IC50 (read off the curve) [3]: ~3 nM
2 | 6F6 (VHH, anti-HGF Nanobody clone; not shown: c-myc and His6 tags) VHH: EVQLVESGGGLVQPGGSLRLSCAASGSILGINAMGWYRQAPGKQRELVAVINSGGSTNYADSVKGRFTISRDNAKNTVYLQMNSLKPEDTAVYYCNADEWGDYPGQVYDYWGQGTQVTVSS | 0.00545 |  |  | koff [4]: 0.00577 s⁻¹; koff [5]: 0.00213 s⁻¹
3 | 1E2 (VHH, anti-HGF Nanobody clone; not shown: c-myc and His6 tags) VHH: EVQLVESGGGLVQPGGSLRLSCAASGRTFSSYAMGWFRQAPGKEREFVAGISWSGSSSYYADSVKGRFTISRDNAKNTVYLQMNSLKPEDTAVYYCAADPVGRADLYEYDYWGQGTQVTVSS | 0.00312 | 1.8 | 0.0001 | Kd [1]: 1.36 nM; koff [1]: 0.0001 s⁻¹; kon [1]: 75200 M⁻¹ s⁻¹; Kd [7]: 1.36 nM
4 | 9G6 (VHH, anti-HGF Nanobody clone; not shown: c-myc and His6 tags) VHH: EVQLVESGGGLVQAGGSLRLSCAASGRTLSDYTMGWFRQAPGKEREFVARINTGGPITSYSDSVKGRFTISRDNAKNTVYLQMNSLKPEDTAVYNCAARLPTKMSPRDYSSYAYRGQGTQVTVSS | 0.00107 | 6.6 | 0.001 | koff [4]: 0.00237 s⁻¹; koff [5]: 0.00102 s⁻¹
5 | 5G9 (VHH, anti-HGF Nanobody clone, tested as periplasmic extract; not shown: c-myc and His6 tags) VHH: EVQLVESGGGLVQTGGSLRLSCAASGRTFSPYAAGWFRHAPGKEREFVTAITWSGGSTYYADSVKGRFTISRDNAKNTVYLQMNSLKPEDTAVYYCAASYRWGITHEFDYWGQGTQVTVSS | 0.0008 |  |  | 
6 | 1E9 (VHH, anti-HGF Nanobody clone; not shown: c-myc and His6 tags) VHH: EVQLVESGGGLVQPGGSLRLSCAASGFTLDHYTIGWFRQAPGNEREGVSCISSLDGSTYYADSVKGRFTISRDNAKDTVYLQMNSLKPEDTAVYYCAVAGCGAYGLIPYDYWGQGTQVTVSS | 0.00314 | 4.5 | 0.0005 | Kd [1]: 7.16 nM; koff [1]: 0.00052 s⁻¹; kon [1]: 92000 M⁻¹ s⁻¹; Kd [7]: 7.16 nM
7 | 6A6 (VHH, anti-HGF Nanobody clone, tested as periplasmic extract; not shown: c-myc and His6 tags) VHH: EVQLVESGGGLAQAGGSLRLSCAASGRSLSNYAMGWFRQAPGKEREIVCAISRSGSITTYADSVKGRFTIAKDNAANTVYLQMNSLKPEDTAAYYCAADPMYYGIPDQNWDYWGQGTQVTVSS | 0.00164 |  |  | 
8 | 6B6 (VHH, anti-HGF Nanobody clone, tested as periplasmic extract; not shown: c-myc and His6 tags) VHH: EVQLVESGGGLVQPGGSLRLSCAASGFTFDDYAMSWGRQAPGKGLEWVSAISWNGGSTYYAESMKGRFTVSRDNAKNTLYLQMNSLKSEDTAVYYCAKALDPLGVLAGTSGIYDYWGQGTQVTVSS | 9.37e-06 |  |  | 
9 | 5E8 (VHH, anti-HGF Nanobody clone, tested as periplasmic extract; not shown: c-myc and His6 tags) VHH: EVQLVESGGGLAQAGGSLRLSCAASGRSLSNYAMGWFRQAPGKEREIVCAISRSGSITTYADSVKGRFTIAKDNAANTVYLQMNSLKPEDTAAYYCAADPMYYGIPDQNWDYWGQGTQVTVSS | 0.00163 |  |  | 
10 | 9E6 (VHH, anti-HGF Nanobody clone, tested as periplasmic extract; not shown: c-myc and His6 tags) VHH: EVQLVESGGGLAQAGGSLRLSCAASGRSLSNYAMGWFRQAPGKEREIVCAISRSGSITTYADSVKGRFTIAKDNAANTVYLQMNSLKPEDTAAYYCAADPMYYGIPDQNWDYWGQGTQVTVSS | 0.00218 |  |  | 
11 | 1C7 (VHH, anti-HGF Nanobody clone, tested as periplasmic extract; not shown: c-myc and His6 tags) VHH: EVQLVESGGGLVQAGGSLRLSCAASGRTFSSYAMGWFRQAPGKEREFVAGISWSGGSTYYADSVKGRFTISRDNAKNTVYLRMNSLKPEDTAVYYCAADPVGRADLYEYDYWGQGTQVTVSS | 0.00286 |  |  | 
12 | 10G3 (VHH, anti-HGF Nanobody clone, tested as periplasmic extract; not shown: c-myc and His6 tags) VHH: EVQLVESGGGLVQAGGSLRLSCADSGRTFSSYAMGWFRQAPGKEREFVAGVNWSGDSTYYADSVKGRFTISRDNAKNTVYLQMNSLKPEDAAVYYCAADPVGRADLYEYDYWGQGTQVTVSS | 0.000377 |  |  | 

The next lines start with results.

Row | koff [2] [s⁻¹] | IC50 [6] [nM] | koff [7] [s⁻¹] | Binder | also measured
13 | 0.0139 | 26.7 | 0.003 | 6H6 (VHH, anti-HGF Nanobody clone; not shown: c-myc and His6 tags) VHH: EVQLMESGGGLVQAGGSLRLSCAASGRTFSSYAMGWFRQAPGKERENVAAISSSGGYTYYPDSVKGRFTISRDTAKNTVYLQMNSLKPDDTAVYYCAGTQPNFGWQLLLLQTEYDYWGQGTQVTVSS | koff [4]: 0.00313 s⁻¹; koff [5]: 0.00332 s⁻¹
14 | 0.000774 | 2.8 | ≤ 1e-05 | 6B2 (VHH, anti-HGF Nanobody clone; not shown: c-myc and His6 tags) VHH: EVQLVESGGGLVQAGGSLRLSCAASGRTFSSYAMGWFRQAPGKEREFVAAINWSGDSTYYADSVKGRFTISRDNAKNTVYLQMNSLKPEDTAVYYCAAGDVGRPDLYEYDYWGQGTQVTVSS | Kd [1]: 0.08 nM; koff [1]: 2.15e-06 s⁻¹; kon [1]: 27800 M⁻¹ s⁻¹; Kd [7]: ≤ 0.08 nM
15 | 0.000324 | 3 | 5e-05 | 6E10 (VHH, anti-HGF Nanobody clone; not shown: c-myc and His6 tags) VHH: EVQLVESGGGLVQAGGSLRLSCAASGRTDSSYAMGWFRQAPGKEHEFVAAISWSGGSTYYADSVKGRFTISRDNAKNTLYLQMNSLKPEDTAVYYCGASYRWGITHEYEYWGQGTQVTVSS | Kd [1]: 1.14 nM; koff [1]: 5.5e-05 s⁻¹; kon [1]: 49900 M⁻¹ s⁻¹; Kd [7]: 1.14 nM
16 | 0.00178 | 2.8 | 0.006 | 6G6 (VHH, anti-HGF Nanobody clone; not shown: c-myc and His6 tags) VHH: EVQLVESGGGLAQAGGSLRLSCAASGRSLSNYAMGWFRQAPGKEREIVCAISRSGSITTYADSVKGRFTIAKDNAANTVYLQMNSLKPEDTAAYYCAADPMYYGIPDQNWDYWGQGTQVTVSS | Kd [1]: 7.37 nM; koff [1]: 0.00573 s⁻¹; kon [1]: 753000 M⁻¹ s⁻¹; Kd [7]: 7.37 nM
17 | 0.00345 |  |  | 1F3 (VHH) VHH 1: EVQLVESGGGLVQSGGSLKLSCAASGFTFSNYFMSWVRQTPEKRLEWVAYISSGGGSTYYPDSVKGRFTISRDNAKNTLYLQMSSLKSEDTAMYYCVRQGDGYYGDYAMDYWGQGTSVTVSS VHH 2: DIQMTQSPASLSVSVGETVTITCRASENIYSNLAWYQQKQGKSPQLLVYDATHLPDGVPSRFSGSGSGTQFSLKINSLQSEDFGSYYCQHFWGTPYTFGGGTRLEIKR | 
18 | 0.0017 |  |  | 6E6 (VHH, anti-HGF Nanobody clone, tested as periplasmic extract; not shown: c-myc and His6 tags) VHH: EVQLVESGGGLAQAGGSLRLSCAASGRSLSNYAMGWFRQAPGKEREIVCAISRSGSITTYADSVKGRFTIAKDNAANTVYLQMNSLKPEDTAAYYCAADPMYYGIPDQNWDYWGQGTQVTVSS | 
19 | 0.00175 |  |  | 5B7 (VHH, anti-HGF Nanobody clone, tested as periplasmic extract; not shown: c-myc and His6 tags) VHH: EVQLVESGGGLAQAGGSLRLSCAASGRSLSNYAMGWFRQAPGKEREIVCAISRSGSITTYADSVKGRFTIAKDNAANTVYLQMNSLKPEDTAAYYCAADPMYYGIPDQNWDYWGQGTQVTVSS | 
20 | 0.00199 |  |  | 5D10 (VHH, anti-HGF Nanobody clone, tested as periplasmic extract; not shown: c-myc and His6 tags) VHH: EVQLVESGGGLAQAGGSLRLSCAASGRSLSNYAMGWFRQAPGKEREIVCAISRSGSITTYADSVKGRFTIAKDNAANTVYLQMNSLKPEDTAAYYCAADPMYYGIPDQNWDYWGQGTQVTVSS | 
21 | 0.00168 |  |  | 6E11 (VHH, anti-HGF Nanobody clone, tested as periplasmic extract; not shown: c-myc and His6 tags) VHH: EVQLVESGGGLAQAGGSLRLSCAASGRSLSNYAMGWFRQAPGKEREIVCAISRSGSITTYADSVKGRFTIAKDNAANTVYLQMNSLKPEDTAAYYCAADPMYYGIPDQNWDYWGQGTQVTVSS | 
